Results: EP2415863A1, “Mutant glucose oxidase” (B.R.A.I.N., priority 2010, dated 2012)

Legend:
Assay type in all cases: biochemical, Aspergillus niger
[1] = substrate: OC[C@H]1OC(O)[C@H](O)[C@@H](O)[C@@H]1O; assay: Kinetic constants by ABTS assay, wt GOx; settings: other: wt GOx, 2.5-100 mM glucose
Source text: (§1) For detection of GOx activity the ABTS assay was used. 2,2'-azino-bis(3-ethylbenzthiazoline-6-sulphonic acid (ABTS) is commonly used as a substrate with hydrogen peroxide for a peroxidase generating enzyme. Its use allows the reaction kinetics of peroxidases to be followed, to indirectly follow the reaction kinetics of a hydrogen peroxide-producing enzyme or to quantify the amount of hydrogen peroxide in a sample [vanGijlswijk, R.P.M., et al., Fluorochrome-labeled tyramides: Use in immunocytochemistry and fluorescence in situ hybridization. Journal of Histochemistry & Cytochemistry, 1997. 45(3): p. 375-382].
(§2) The kinetic constants were determined using the Specord 200 from (Analytik Jena, Germany) and the ABTS assay [Zhu, Z.W., et al. 2006, Making glucose oxidase fit for biofuel cell applications by directed protein evolution. Biosensors & Bioelectronics, 21(11): 2046-2051]. The measurements were performed in 1 ml of reaction volume and 1 cm light pathway cuvettes, using 2.5, 5, 10, 25, 50 and 100 mM glucose. The data were fitted using Origin 6 (OriginLab Corporation, Northampton).

[2] = substrate: OC[C@H]1OC(O)[C@H](O)[C@@H](O)[C@@H]1O; assay: Kinetic constants by ABTS assay, parent GOx B11; settings: other: Parent GOx (B11), 2.5-100 mM glucose
Source text: as §1, §2

[3] = substrate: OC[C@H]1OC(O)[C@H](O)[C@@H](O)[C@@H]1O; assay: Kinetic constants by ABTS assay, GOx mutant M12; settings: other: M12, 2.5-100 mM glucose
Source text: as §1, §2

B1: Aspergillus niger glucose oxidase (GOx), wild type, SEQ ID NO: 3 (Aspergillus niger) (protein)
chain: SNGIEASLLTDPKDVSGRTVDYIIAGGGLTGLTTAARLTENPNISVLVIESGSYESDRGPIIEDLNAYGDIFGSSVDHAYETVELATNNQTALIRSGNGLGGSTLVNGGTWTRPHKAQVDSWETVFGNEGWNWDNVAAYSLQAERARAPNAKQIAAGHYFNASCHGVNGTVHAGPRDTGDDYSPIVKALMSAVEDRGVPTKKDFGCGDPHGVSMFPNTLHEDQVRSDAAREWLLPNYQRPNLQVLTGQYVGKVLLSQNGTTPRAVGVEFGTHKGNTHNVYAKHEVLLAAGSAVSPTILEYSGIGMKSILEPLGIDTVVDLPVGLNLQDQTTATVRSRITSAGAGQGQAAWFATFNETFGDYSEKAHELLNTKLEQWAEEAVARGGFHNTTALLIQYENYRDWIVNHNVAYSELFLDTAGVASFDVWDLLPFTRGYVHILDKDPYLHHFAYDPQYFLNELDLLGQAAATQLARNISNSGAMQTYFAGETIPGDNLAYDADLSAWTEYIPYHFRPNYHGVGTCSMMPKEMGGVVDNAARVYGVQGLRVIDGSIPPTQMSSHVMTVFYAMALKISDAILEDYASMQ
notes: made in house; host or cells: Saccharomyces cerevisiae (pYES2 vector)
With B1 the Km [1] was 22.0 mM mM.

B2: Aspergillus niger glucose oxidase (GOx) parent mutant B11, T30V, I94V, SEQ ID NO: 5 (Aspergillus niger; I116V/T52V) (protein)
chain: SNGIEASLLTDPKDVSGRTVDYIIAGGGLVGLTTAARLTENPNISVLVIESGSYESDRGPIIEDLNAYGDIFGSSVDHAYETVELATNNQTALVRSGNGLGGSTLVNGGTWTRPHKAQVDSWETVFGNEGWNWDNVAAYSLQAERARAPNAKQIAAGHYFNASCHGVNGTVHAGPRDTGDDYSPIVKALMSAVEDRGVPTKKDFGCGDPHGVSMFPNTLHEDQVRSDAAREWLLPNYQRPNLQVLTGQYVGKVLLSQNGTTPRAVGVEFGTHKGNTHNVYAKHEVLLAAGSAVSPTILEYSGIGMKSILEPLGIDTVVDLPVGLNLQDQTTATVRSRITSAGAGQGQAAWFATFNETFGDYSEKAHELLNTKLEQWAEEAVARGGFHNTTALLIQYENYRDWIVNHNVAYSELFLDTAGVASFDVWDLLPFTRGYVHILDKDPYLHHFAYDPQYFLNELDLLGQAAATQLARNISNSGAMQTYFAGETIPGDNLAYDADLSAWTEYIPYHFRPNYHGVGTCSMMPKEMGGVVDNAARVYGVQGLRVIDGSIPPTQMSSHVMTVFYAMALKISDAILEDYASMQ
notes: made in house; host or cells: Saccharomyces cerevisiae (pYES2 plasmid B11 GOx)
For B2, the Km [2] was 16.0 mM mM and the kcat [2] was 80.0 S-^1 S-^1.

B3: Aspergillus niger glucose oxidase (GOx) variant M12, N2Y, K13E, T30V, I94V, K152R, SEQ ID NO: 1 (Aspergillus niger; I116V/K174R/K35E/N24Y/T52V) (protein)
chain: SYGIEASLLTDPEDVSGRTVDYIIAGGGLVGLTTAARLTENPNISVLVIESGSYESDRGPIIEDLNAYGDIFGSSVDHAYETVELATNNQTALVRSGNGLGGSTLVNGGTWTRPHKAQVDSWETVFGNEGWNWDNVAAYSLQAERARAPNARQIAAGHYFNASCHGVNGTVHAGPRDTGDDYSPIVKALMSAVEDRGVPTKKDFGCGDPHGVSMFPNTLHEDQVRSDAAREWLLPNYQRPNLQVLTGQYVGKVLLSQNGTTPRAVGVEFGTHKGNTHNVYAKHEVLLAAGSAVSPTILEYSGIGMKSILEPLGIDTVVDLPVGLNLQDQTTATVRSRITSAGAGQGQAAWFATFNETFGDYSEKAHELLNTKLEQWAEEAVARGGFHNTTALLIQYENYRDWIVNHNVAYSELFLDTAGVASFDVWDLLPFTRGYVHILDKDPYLHHFAYDPQYFLNELDLLGQAAATQLARNISNSGAMQTYFAGETIPGDNLAYDADLSAWTEYIPYHFRPNYHGVGTCSMMPKEMGGVVDNAARVYGVQGLRVIDGSIPPTQMSSHVMTVFYAMALKISDAILEDYASMQ
notes: made in house; host or cells: Saccharomyces cerevisiae (pYES2)
With B3 the Km [3] was 18.1 mM mM and the kcat [3] was 150 s-1 s-1.
